Measurements reported in the domain aggregation screens of Martell et al. (2025).

Test: soluble fraction after stress (log2 fold change); higher = more stays soluble; pooled small domains, quantitative proteomics
Conditions: stress: 50 degC
Summary of the method: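 The stress applied to every library was 50°C. These custom libraries of small protein domains were pooled and measured at high throughput with quantitative proteomics as the read-out. Aggregation propensity is expressed as the base-two logarithm of the fold change in how much of each protein remains soluble. The higher the value, the more of that protein stays in solution.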

Sequence	soluble fraction (log2)
HMKPSTVSVPDVSGDKLSTAKMIIRKSGLKVGDVQKIEDDNVGAGKVVRTNPSAGSKKREGSSVDIFVASA	0.16
HMNKMIDAPDLTGLSLEDAKLVLEANKLQLGTVSHEPSDKPEDVVISQDPMEGQEIQQGGKVNLVVSYGD	-0.0696
HMDYNLTKNQKIVFNLLQNSGEPLKAYTILESLKREGLKSPLQVYRALDKLVELGIIHKIESQNSFI	-0.45
HMPTSLPGIDIDEKNIVSSTGALSFKKVPKKLAIIGGGYIGLEMGSVWSRLGSSVTVIEYLNFITPG	-0.00687
HMINFSKNIISDTTSIKEAIEILNIISGRDNHILFVLNDKRQLIGTLSDGDVRRGMLASKTISQSVTEVM	-0.351
HMDKENVLQLQKDLLRLSVNALEKRYYQFSDILLLKYILPLVPKEISIDDQSRLRSLLSGIN	-0.238
HMRNEFEAHSDGTRIQLNDRSKATFSVYDVQGRLIHSFQDFSGSSFNIEPKNQLLIITRETAEGVSVKKLV	0.0942
HMVAESGLPPAFRSTWRHIMQTRGAQLDVLAMRTGTDAASLQKQLHAMELGGWVRRMPGGWYVPLK	-0.736
HMVKDLEIETIRLNNLLASDAEEVLKSLGGAKPTYKAVAVPGSNSLVIEGTKADLIKLKSIINALEDGS	0.0941
HMLYDNQLPDWAGQMVKNHGLTISPKALVILVDHIGNDLSRIENEIEKLMLNLGTRKSITEDDVEN	-1.28
HMFTKSNLEKLSNSELILKAIDSGNYSKIEFGGSEALNPDVPSYKKDLKNREELIEILSEMGM	-0.0323
HMGDWEDFWEKEARRRKLSLDYQVVRSLSRWSREYDWGEEDVEQFLSQFPEGETVKMEDVELYFE	-1.12
HMSQLSQIVDAFGGLRPFARALNKPPSTVQYWIEKGGIPASVVSPIMKLSEEKGLGLSRDQVSAAVS	0.157
HMYGQEVKVLGLFGDRAFIKVDEKSAVIRIGQSHQNVQLKSISNQKAILLVDNKDIALGLGDSYQSA	-0.244
HMEPTIGTATVTSGSRLNMRSAKSTSASVVTRIPSGATVGVISYASDWSKVTYNGYTGYVSSPYISMNG	-0.198
HMTNEPRLTNMGFNKMLIENYKMILEYQDFFIRISTQIGIININGFDLKLGEMTADEVLVTGKIESIDL	0.53
HMLRDMIIQSYRYYTDKERNPRQVWNRMEADAFWEIIRDYEGYNGDGYVHTKIIPEMEALTVIEMDN	-1.62
HMTSSVIIPKLIGKTEEEAKVALAGLNVQVLYETHGDQANGIVIKQSFEEGTKVIKGVSIVITVNKVS	0.0698
HMPELPEVETSRRGIEPHLVGATILHAVVRNGRLRWPVSEEIYRLSDQPVLSVQRRAKYLLLELQA	0.0555

Sequence	soluble fraction (log2)
HMATQTGTVKWFNEGKGFGFIAPDDGSKDLFAHFSEIKTTGFKTLAEAQRVEFEVTEGRKGLQASNIK	0.0521
HMKQVSDTGAIDAAIREVMDANPDKVAEYRSGKDKLFGFFVGQIMRAMAGKAAPVVVNDRLKALLD	0.355
HMSREVTVPPLSGLTLRDAARTLAERGLLMEAEGQGAVHRQDPPAGTRVPTGTPVRVFLTLPEQNS	0.333
HMGVNNDIIKHRKLEFMIEMLPDTFTRKEANEIGEGLGISLATLTRYLSSDAFERTGHGRYRKKD	-1.08
HMNTEKRVFAGVENTRLDHFLVEQFPEFSRTFIQQMIKSANVIVNGNIEKASYKLREGDTIMTRPM	-0.253
HMKEQIKVPDLSNKTPEEAKKELNTLGLGARKGGEESSDTVEEGLITRQEPAAGEQVDKNTQILFYVSTGK	0.0624
HMELARLRPELDGNDIMRILGVPPGPVVGRAYTYLLELRINQGELGRERVTQLLLDWAAAEGISA	-2.02
HMESSKLQASIINYLERRPTQKFTAEELFKGLSLEKASVFNELVKELTSLERSHKVEITADDKFKIARPQ	-0.126
HMNLIFFSENLSTFRKEKGWTQSELAEKLGVKANTISNYEKGISTPDYKIIAKLRELFEMPTDVLLYSNLS	-1.39
HMDRVDGWLHDGKLYLRVVDYKTGKKSFDLAELRYGLGLQMLLYLFTLKEEGQMLFGGHEIVPAGVL	-0.391
HMAPRDKADKYVAAGIAEELVPILQKVGYYLVTDLKDVKAQKIQQQIGEIIKKYKLDIEKPSVQDIEGWN	0.0612
HMDLFSAVVHHIVGQQISTKAQATIWKRMRDEFGVVDAAAVLGAGVEKLQSFGMTFRKAEYITDFARKIE	-2.51
HMVVTMEKIVVNDGGIRIDTYLADKLNISRSKVAKMLENNILVNNVKVKPSYKVTNNDIIEVEEYV	-0.936
HMEPQLVKSFDVQTELTYDQFLSKYPESHTLGRLLVQPEPIPFEPYKNIPGITPEKLLALHAKHLEAR	0.0728
HMKDASEFLGAKGKTITPLRPTGAAVINGEKVDVLAEGEFIPKNAEIVVIKVEGSKIIVRNANN	0.143
HMNIVVSSIDSNSFEIVNKETGEQAVISYDKETKKGFVLINGVKKEFFQDGNKVYYDGYVIAE	0.227
HMDLDIQNYNLDEILELFKVSYDFDETELKKAHKMYLMTHPDKSNLNPNIFLFFVQAYDILRKLYEFR	-0.468
HMKPEQIELTFSGTTAMRLDKFLAENQPGLSRAKLQAIISSGSVEVNGKVITKQAFKLDPGDLVKALIPE	0.0295
HMAPETALQILEQIQINPKVTMTDLANLTGYSRRWVAQTMKQLQELNVIKRVGSTKTGYWEIIA	-0.138
